Data as given in patent publication US20230125550A1 (ARCELLX, published 2023).
Positions count from the first letter of the chain named.

T1: recombinant human CD123-Fc (human, UniProt P26951 19-305)
T1 construct: not shown: Fc part of CD123-Fc
T1 sequence: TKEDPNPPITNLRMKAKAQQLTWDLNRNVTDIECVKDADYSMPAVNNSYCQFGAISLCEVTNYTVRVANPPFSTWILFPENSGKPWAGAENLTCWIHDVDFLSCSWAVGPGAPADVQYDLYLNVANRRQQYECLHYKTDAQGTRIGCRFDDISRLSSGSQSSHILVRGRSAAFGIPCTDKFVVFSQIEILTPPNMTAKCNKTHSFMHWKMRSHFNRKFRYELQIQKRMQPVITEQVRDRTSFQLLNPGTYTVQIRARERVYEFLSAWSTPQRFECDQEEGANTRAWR

B1: SEQ ID NO: 391 (designed binder)
chain: MGSWSEFEDRLWAIDQRLFALGGSEAELAAFEKEIAAFESELQAYKGKGNPEVEWLRAYAADIRWELQAYRHN
notes: D domain, on phage
B2: SEQ ID NO: 390 (designed binder)
chain: B1 chain with E8Y, D15E, Q16E, W55Y, A58Y, D62E, W65E
notes: D domain, on phage
B3: SEQ ID NO: 394 (designed binder)
chain: B1 chain with S5W, D9N, D15E, Q16E, F19E, W55M, A58N, D62E
notes: D domain, on phage
B4: SEQ ID NO: 395 (designed binder)
chain: B1 chain with S5V, D9E, Q16E, F19G, A58D, Y59W, E66W
notes: D domain, on phage
B5: SEQ ID NO: 396 (designed binder)
chain: MGSWVEFEERLEAIEERLFALGGSEAELAAFEKEIAAFESELQAYKGKGNPEVEWLRDDAANIRHWLQAYRHN
notes: D domain, on phage
B6: SEQ ID NO: 392 (designed binder)
chain: B1 chain with S5T, E8W, D9E, W12N, Q16E, A58L, D62E, W65S
notes: D domain, on phage
B7: SEQ ID NO: 393 (designed binder)
chain: MGSWWEFEERLWAIDYRLHALGGSEAELAAFEKEIAAFESELQAYKGKGNPEVEMLRSWAAEIRALLQAYRHN
notes: D domain, on phage
B8: SEQ ID NO: 398 (designed binder)
chain: B5 chain with V5S, E9H, E16S, W55D, D58S, D59E, N62W, H65E, W66Q
notes: D domain, on phage
B9: SEQ ID NO: 399 (designed binder)
chain: MGSWFEFWERLDAIEWRLWALGGSEAELAAFEKEIAAFESELQAYKGKGNPEVEELRSTAADIRRYLQAYRHN
notes: D domain, on phage
B10: SEQ ID NO: 400 (designed binder)
chain: B9 chain with E9G, D12E, W16S, W19K, S58E, T59H, D62W, R65A
notes: D domain, on phage
B11: SEQ ID NO: 401 (designed binder)
chain: MGSWQEFTMRLDAIYNRLETLGGSEAELAAFEKEIAAFESELQAYKGKGNPEVEWLRQSAANIRSELQAYRHN
notes: D domain, on phage
B12: SEQ ID NO: 432 (designed binder)
chain: B9 chain with W8Y, E15N, W19F, E55A, S58G, T59E, D62A, R65E, Y66D
notes: D domain, on phage
B13: SEQ ID NO: 433 (designed binder)
chain: MGSWNEFEDRLDAIWWRLFALGGSEAELAAFEKEIAAFESELQAYKGKGNPEVEALRVEAAFIRTMLQAYRHN
notes: D domain, on phage
B14: SEQ ID NO: 434 (designed binder)
chain: MGSWFYFKDDLADINYMLEALGGSEAELAMFEDDIAGFELTLLKYKGKGNPEVEALRKEAAAIRDELQAYRHN
notes: D domain, on phage
B15: SEQ ID NO: 435 (designed binder)
chain: MGSWHFFKDDLAWIKNELEALGGSEAELAMFEDDIAMFETMLQSYKGKGNPEVEALRKEAAAIRDELQAYRHN
notes: D domain, on phage
B16: SEQ ID NO: 436 (designed binder)
chain: B15 chain with F6W, D9T, W13D, N16E, M37E, T40E, M41F, S44M
notes: D domain, on phage
B17: SEQ ID NO: 437 (designed binder)
chain: MGSWWLFKDDLAEIKYWLEALGGSEAELAFFEDDIAEFERGLQIYKGKGNPEVEALRKEAAAIRDELQAYRHN
notes: D domain, on phage
B18: SEQ ID NO: 438 (designed binder)
chain: B17 chain with W5Y, L6E, Y16E, D33L, E37D, R40W, G41L, I44L
notes: D domain, on phage
B19: SEQ ID NO: 439 (designed binder)
chain: MGSWQWFKDDLAYIKETLEALGGSEAELALFEDMIADFEFELQWYKGKGNPEVEALRKEAAAIRDELQAYRHN
notes: D domain, on phage
B20: SEQ ID NO: 440 (designed binder)
chain: B19 chain with Q5I, W6L, Y13W, L30F, M34N, F40E, E41Q, W44G
notes: D domain, on phage
B21: SEQ ID NO: 441 (designed binder)
chain: MGSWIVFKDDLADIKRWLEALGGSEAELAMFEDEIADFEWQLQDYKGKGNPEVEALRKEAAAIRDELQAYRHN
notes: D domain, on phage
B22: SEQ ID NO: 442 (designed binder)
chain: B15 chain with H5G, F6H, D9Q, N16D, E17T, M30F, T40M, M41E, S44D
notes: D domain, on phage
B23: SEQ ID NO: 443 (designed binder)
chain: MGSWGYFKDDLAWIKGELEALGGSEAELAEFEWFIAVFEEDLQVYKGKGNPEVEALRKEAAAIRDELQAYRHN
notes: D domain, on phage
B24: SEQ ID NO: 444 (designed binder)
chain: B23 chain with G5Y, Y6W, W13E, E17L, W33D, F34E, E40Q, D41E, V44E
notes: D domain, on phage
B25: SEQ ID NO: 445 (designed binder)
chain: MGSWMFFKEDLADIKWALEALGGSEAELAFFEEEIALFEQHLQQYKGKGNPEVEALRKEAAAIRDELQAYRHN
notes: D domain, on phage
B26: SEQ ID NO: 449 (designed binder)
chain: B21 chain with I5T, V6Y, R16Q, M30F, D33I, D37E, W40E, Q41E, D44E
notes: D domain, on phage
B27: SEQ ID NO: 446 (designed binder)
chain: B25 chain with M5T, D13G, A17E, F30W, E33D, Q40E, H41E, Q44E
notes: D domain, on phage
B28: SEQ ID NO: 447 (designed binder)
chain: B25 chain with M5V, E9D, W16D, A17E, E33I, E34A, Q40W, H41E, Q44E
notes: D domain, on phage
B29: SEQ ID NO: 450 (designed binder)
chain: B21 chain with I5T, D9Y, R16W, M30D, D33E, D37E, W40E, Q41E, D44E
notes: D domain, on phage
B30: SEQ ID NO: 448 (designed binder)
chain: B17 chain with W5T, L6F, D9N, Y16D, F30D, D33W, R40Y, G41S, I44E
notes: D domain, on phage
B31: SEQ ID NO: 451 (designed binder)
chain: MGSWYWFKQDLAHIKSMLEALGGSEAELAWFEEDIADFESELQEYKGKGNPEVEALRKEAAAIRDELQAYRHN
notes: D domain, on phage
B32: SEQ ID NO: 452 (designed binder)
chain: B31 chain with Y5T, W6F, Q9W, H13D, S16A, M17N, I35L, D37G, S40A
notes: D domain, on phage
B33: SEQ ID NO: 453 (designed binder)
chain: MGSWSFFKEELANIQVYLEALGGSEAELAWFEEDIADFEEDLQHYKGKGNPEVEALRKEAAAIRDELQAYRHN
notes: D domain, on phage
B34: SEQ ID NO: 454 (designed binder)
chain: B33 chain with S5E, E9Y, N13D, Q15K, V16D, Y17E, D37T, D41W, H44G
notes: D domain, on phage
B35: SEQ ID NO: 455 (designed binder)
chain: B31 chain with Y5Q, W6T, Q9D, D10E, S16W, M17E, E33W, D37N, S40E
notes: D domain, on phage
B36: SEQ ID NO: 456 (designed binder)
chain: B31 chain with Q9E, D10E, H13F, S16W, M17E, W30L, D37Y, S40E, E41M
notes: D domain, on phage
B37: SEQ ID NO: 457 (designed binder)
chain: MGSWNSFKDELAEIKAELEALGGSEAELAFFEEDIAWFEEHLQQYKGKGNPEVEALRKEAAAIRDELQAYRHN
notes: D domain, on phage
B38: SEQ ID NO: 458 (designed binder)
chain: B37 chain with N5D, S6L, D9W, A16L, E17G, F30E, E33Y, H41D, Q44D
notes: D domain, on phage
B39: SEQ ID NO: 459 (designed binder)
chain: B31 chain with Y5I, W6F, H13E, S16L, M17N, E33D, D37W, E41H, E44D
notes: D domain, on phage
B40: SEQ ID NO: 460 (designed binder)
chain: B17 chain with W5H, D9W, D10T, W17E, F30W, E37T, R40E, G41E, I44W
notes: D domain, on phage
B41: SEQ ID NO: 461 (designed binder)
chain: MGSWVTFKDELADIKDFLEALGGSEAELAFFEVDIAEFEAELQFYKGKGNPEVEALRKEAAAIRDELQAYRHN
notes: D domain, on phage
B42: SEQ ID NO: 462 (designed binder)
chain: B41 chain with T6Y, F30E, V33E, E37T, A40Y, E41D, F44W
notes: D domain, on phage
B43: SEQ ID NO: 463 (designed binder)
chain: B41 chain with V5E, D9Y, D13E, F17Y, F30W, V33D, A40F, F44Y
notes: D domain, on phage
B44: SEQ ID NO: 464 (designed binder)
chain: B41 chain with V5N, D9Y, D13E, D16H, F30M, V33D, E37M, A40W, F44E
notes: D domain, on phage
B45: SEQ ID NO: 465 (designed binder)
chain: B41 chain with V5Y, T6V, D13E, D16Q, F30W, V33D, A40T, E41Q, F44H
notes: D domain, on phage
B46: SEQ ID NO: 466 (designed binder)
chain: MGSWIFFKEQLAIIKWELEALGGSEAELAWFEDDIAAFEDDLQFYKGQGNPEVEALRKEAAAIRDELQAYRHN
notes: D domain, on phage
B47: SEQ ID NO: 467 (designed binder)
chain: MGSWEFFKEVLAEIKYDLEALGGSEAELAWFETDIAGFEIDLQVYKGKGNPEVEALRKEAAAIRDELQAYRHN
notes: D domain, on phage
B48: SEQ ID NO: 468 (designed binder)
chain: B47 chain with E5V, V10D, E13T, Y16N, T33M, D34M, G37D, I40A, V44Y
notes: D domain, on phage

Biological target: T1, recombinant human CD123-Fc
Test: phage ELISA, captured CD123-Fc
Method: Individual colonies containing phagemid from BCMA panning output were picked and phage were rescued in 96-well format using VCSM13 helper phage following standard protocols. To assay target binding by ELISA, 96-well plates were coated with 1.3 microg/ml goat anti-human IgG1-Fc antibody followed by incubation with 5 nM of recombinant human target (BCMA-Fc, CD123-Fc, AFP, or AFP123) or IgG1-Fc. 50 microl of rescued phage diluted 5× in ELISA blocking buffer was then added to each well. Binding was detected using an HRP-conjugated anti-M13 antibody and the ELISA ratio for each sequence is reported as the absorbance at 450 nm for target (i.e., BCMA-Fc, CD123-Fc, AFP, or AFP123) divided by that for IgG1-Fc averaged across all screened wells containing that clone.

Binder | ELISA_avg
B1 | 4.2 ratio A450 target/IgG1-Fc
B2 | 17 ratio A450 target/IgG1-Fc
B3 | 5.6 ratio A450 target/IgG1-Fc
B4 | 4.1 ratio A450 target/IgG1-Fc
B5 | 3.8 ratio A450 target/IgG1-Fc
B6 | 4 ratio A450 target/IgG1-Fc
B7 | 4.1 ratio A450 target/IgG1-Fc
B8 | 7.6 ratio A450 target/IgG1-Fc
B9 | 3.4 ratio A450 target/IgG1-Fc
B10 | 4.9 ratio A450 target/IgG1-Fc
B11 | 13.7 ratio A450 target/IgG1-Fc
B12 | 3 ratio A450 target/IgG1-Fc
B13 | 5.1 ratio A450 target/IgG1-Fc
B14 | 3.7 ratio A450 target/IgG1-Fc
B15 | 3.2 ratio A450 target/IgG1-Fc
B16 | 3.5 ratio A450 target/IgG1-Fc
B17 | 3.3 ratio A450 target/IgG1-Fc
B18 | 3.8 ratio A450 target/IgG1-Fc
B19 | 6.3 ratio A450 target/IgG1-Fc
B20 | 6 ratio A450 target/IgG1-Fc
B21 | 3.9 ratio A450 target/IgG1-Fc
B22 | 4.9 ratio A450 target/IgG1-Fc
B23 | 4.5 ratio A450 target/IgG1-Fc
B24 | 10.4 ratio A450 target/IgG1-Fc

Binder | ELISA_avg
B25 | 3.2 ratio A450 target/IgG1-Fc
B26 | 4.6 ratio A450 target/IgG1-Fc
B27 | 7 ratio A450 target/IgG1-Fc
B28 | 8.8 ratio A450 target/IgG1-Fc
B29 | 3.9 ratio A450 target/IgG1-Fc
B30 | 3.9 ratio A450 target/IgG1-Fc
B31 | 3.3 ratio A450 target/IgG1-Fc
B32 | 4.8 ratio A450 target/IgG1-Fc
B33 | 3.8 ratio A450 target/IgG1-Fc
B34 | 3.4 ratio A450 target/IgG1-Fc
B35 | 5.5 ratio A450 target/IgG1-Fc
B36 | 9.4 ratio A450 target/IgG1-Fc
B37 | 3.3 ratio A450 target/IgG1-Fc
B38 | 3.4 ratio A450 target/IgG1-Fc
B39 | 3.8 ratio A450 target/IgG1-Fc
B40 | 4 ratio A450 target/IgG1-Fc
B41 | 7.6 ratio A450 target/IgG1-Fc
B42 | 4.6 ratio A450 target/IgG1-Fc
B43 | 4.4 ratio A450 target/IgG1-Fc
B44 | 5 ratio A450 target/IgG1-Fc
B45 | 9.9 ratio A450 target/IgG1-Fc
B46 | 15 ratio A450 target/IgG1-Fc
B47 | 8.2 ratio A450 target/IgG1-Fc
B48 | 3.1 ratio A450 target/IgG1-Fc
